Measured values from patent publication US20250090677A1 (MULTITUDE THERAPEUTICS, published 2025).
Changes are numbered by the printed parent chain.

T1: recombinant protein CDH6 (UniProt P55285 54-615)
T1 construct: also called CDH6 recombinant protein; CDH6 antigen
T1 sequence (looked up): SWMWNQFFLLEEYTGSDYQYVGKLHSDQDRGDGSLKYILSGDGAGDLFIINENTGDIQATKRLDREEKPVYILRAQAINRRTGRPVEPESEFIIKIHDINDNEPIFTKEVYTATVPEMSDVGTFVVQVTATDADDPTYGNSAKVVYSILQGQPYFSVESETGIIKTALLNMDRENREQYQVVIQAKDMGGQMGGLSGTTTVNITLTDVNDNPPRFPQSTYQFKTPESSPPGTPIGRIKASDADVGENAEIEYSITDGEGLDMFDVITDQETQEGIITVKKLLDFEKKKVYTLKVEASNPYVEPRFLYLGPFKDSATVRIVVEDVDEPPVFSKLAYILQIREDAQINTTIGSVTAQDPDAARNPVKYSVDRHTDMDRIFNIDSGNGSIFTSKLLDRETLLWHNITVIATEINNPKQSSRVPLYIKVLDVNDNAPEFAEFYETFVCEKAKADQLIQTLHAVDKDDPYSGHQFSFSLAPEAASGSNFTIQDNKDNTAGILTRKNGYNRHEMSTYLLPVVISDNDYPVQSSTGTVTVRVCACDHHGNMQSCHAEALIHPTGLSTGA

T2: CDH6 on the cell surface of OVCAR-3 cells (human ovarian cancer cells) (human, UniProt P55285 54-790)
T2 construct: whole, on cells; also called CDH6-positive human ovarian cancer cell line OVCAR-3
T2 sequence (looked up): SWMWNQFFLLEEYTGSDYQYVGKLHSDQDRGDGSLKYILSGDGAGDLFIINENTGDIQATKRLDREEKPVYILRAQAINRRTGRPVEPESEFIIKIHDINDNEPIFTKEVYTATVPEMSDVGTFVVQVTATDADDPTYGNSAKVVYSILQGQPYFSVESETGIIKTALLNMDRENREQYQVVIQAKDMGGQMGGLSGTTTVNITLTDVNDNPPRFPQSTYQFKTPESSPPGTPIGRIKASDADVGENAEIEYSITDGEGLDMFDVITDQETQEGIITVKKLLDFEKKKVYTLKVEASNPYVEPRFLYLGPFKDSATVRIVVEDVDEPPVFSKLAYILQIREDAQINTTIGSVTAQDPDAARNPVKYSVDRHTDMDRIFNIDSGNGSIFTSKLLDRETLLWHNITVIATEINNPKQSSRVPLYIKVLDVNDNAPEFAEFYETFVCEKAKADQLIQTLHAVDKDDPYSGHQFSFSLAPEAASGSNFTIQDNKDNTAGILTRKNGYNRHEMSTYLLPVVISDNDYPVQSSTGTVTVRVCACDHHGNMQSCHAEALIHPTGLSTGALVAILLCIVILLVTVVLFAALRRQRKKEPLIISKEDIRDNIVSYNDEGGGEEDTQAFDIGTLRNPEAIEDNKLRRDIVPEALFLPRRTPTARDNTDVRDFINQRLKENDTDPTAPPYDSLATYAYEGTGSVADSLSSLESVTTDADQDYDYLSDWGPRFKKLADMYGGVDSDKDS

B1: CL069707 antibody (antibody, V domains shown)
VH: EVHLVESGGGLVQPKGSLKLSCVASGFTFTTYAMNWVRQAPGKGLEWVARIRIKNNNYATYYADSVTDRFTISRDDSQSMLYLQMNNLKTEDTAMYYCVRPDYGNYGLAYWGQGTLVTVSA
VL: EIVLTQSPTTMAASPGEKITITCSASSSISSHYLHWYQQKPGFSPKLLIYRSFYLASGVPLRFTGSGSGTSYSLTIGTMEAEDVATYYCQQDIVPLTFGAGTKLELK
notes: Mouse monoclonal antibody from hybridoma, purified from ascites with Protein A/G; also called #23; No. 23
B2: CL069439 antibody (antibody, V domains shown)
VH: EVQLQQSGTELVRTGASVKISCKASGYSFTGYYIHWIKQSHGESLEWIGYISCFNGDTSYNQNFKDRATFNVDTSSSTAYMQFISLTSEDSAVYYCVRGRYGNFNYFDYWGQGTTLTVSS
VL: DIVLTQSPASLAVSLGQRATISCRASESVEFYGTSLMQWFQQKPGHPPQLLIYATSNVDSGVPARFSASGSGTDFSLNIHPVEEADIAMYFCQQSRRIPWTFGGGTKLEIK
notes: Mouse monoclonal antibody from hybridoma, purified from ascites with Protein A/G; also called #16; No. 16
B3: CL069066 antibody (antibody, V domains shown)
VH: EVKLLESGGGLVQPGGSLKLSCAASGFDFSRYWMTWVRQAPGKGLEWIGEINPDSSTINYTPSLKDKFIISRDNAKNTLYLQMNKVTSEDTALYYCTRRPHYYGYFDSWGQGTTLTVSS
VL: DIVLTQSPASLAVSLGQRATISCRASESVEYYGTTLMQWYQQKPGQPPQLLIYAGSNVESGVPARFSGSGSGTEFSLNIHPVEEDDIGMYFCQQSRKVPWTFGGGTKLEIK
notes: Mouse monoclonal antibody from hybridoma, purified from ascites with Protein A/G; also called #4; No. 4
B4: CL069463 antibody (antibody, V domains shown)
VH: EVQLVESGGGLVQPKGSLKLSCAASGFTFNTYALTWVRQAPGKGLEWVGRIKSKNKDYETYYADSVKDRFTISRNDSQSLLYLQMNNLKTEDTAIYYCVRQNWNYFDYWGQGTTLTVSS
VL: DIQMTQSPASLAASVGETVTITCRASENIYYSLAWYQQRQGKSPQLLIYNANSLKDGVPSRFSGSGSGTQYSMKINSMQPEDTATYFCQQAYDVPPTFGGGTKLEIK
notes: Mouse monoclonal antibody from hybridoma, purified from ascites with Protein A/G; also called #13; No. 13
B5: CL069707-H1L2 (antibody, human IgG1, kappa, V domains shown)
VH: B1 VH with H3Q, K15G, K19R, V23A, Q78K, S79N, M80S, N87S, M95V, A121S
VL: DIQLTQSPSSLSASVGDRVTITCSASSSISSHYLHWYQQKPGKSPKLLIYRSFYLASGVPLRFSGSGSGTDFTLTISSLQPEDFATYYCQQDIVPLTFGQGTKLEIKR
notes: Humanized IgG1/kappa, produced in 293 cells
B6: CL069707-H2L1 (antibody, human IgG1, kappa, V domains shown)
VH: EVQLVESGGGLVQPGGSLRLSCAASGFTFTTYAMNWVRQAPGKGLEWVGRIRIKNNNYATYYADSVTDRFTISRDDSKNSLYLQMNSLKTEDTAVYYCVRPDYGNYGLAYWGQGTLVTVSS
VL: B5 VL with L61S
notes: as for B5
B7: CL069707-H2L2 (antibody, human IgG1, kappa, V domains shown)
VH: B6 VH
VL: B5 VL
notes: as for B5
B8: CL069463-H2L2 (antibody, human IgG1, kappa)
heavy: not shown
light: DIQMTQSPSSLSASVGDRVTITCRASENIYYSLAWYQQKPGKAPKLLIYNANSLKDGVPSRFSGSGSGTDYTMTISSMQPEDFATYYCQQAYDVPPTFGGGTKVEIKRTVAAPSVFIFPPSDEQLKSGTASVVCLLNNFYPREAKVQWKVDNALQSGNSQESVTEQDSKDSTYSLSSTLTLSKADYEKHKVYACEVTHQGLSSPVTKSFNRGEC
notes: Humanized IgG1/kappa
B9: CL069463-H2L3 (antibody, human IgG1, kappa)
heavy: not shown
light: B8 light with D17E
notes: Humanized IgG1/kappa
B10: CL069463-H1L1 (antibody, human IgG1, kappa, V domains shown)
VH: B4 VH with K15S, P41S, N75D, Q78I, L80T, N87S, I95L, T114M
VL: DIQMTQSPSSLSASVGQRVTITCRASENIYYSLAWYQQKPGKPPRLLIYNANSLKDGVPSRFSGSGSGTQYTMTITSMQPEDFATYYCQQAYDVPPTFGGGTKLEIKR
notes: Humanized IgG1/kappa

target: T1, recombinant protein CDH6; experiment: ELISA, CDH6 coated; antibody 25 ng/mL
Experimental: (§1) The recombinant protein CDH6 was coated on ELISA plates at 1 μg/mL overnight at 4° C.; after being washed with PBST, the plate was added with 10% fetal bovine serum, and the mixture was blocked at 37° C. for 1 h; the plate was added with 13 monoclonal antibodies of CDH6 with different dilutions (0.1 ng/mL to 100 ng/mL), and the mixture was reacted at 37° C. for 1 h; after being washed with PBST, the plate was added with horseradish peroxidase-labeled goat anti-human IgG secondary antibody (Goat anti Mouse (HRP), Thermo Fisher Scientific), and the mixture was reacted at 37° C. for 30 min; after the plate was repeatedly washed with PBST 5 times, the remaining droplets on the absorbent paper were patted as much as possible; each well of the plate was added with 100 μL of TMB (eBioscience) and placed in the dark at room temperature (20±5° C.) for 1.5 min; each well of the plate was added with 100 μL of 2 N H₂SO₄ stop buffer for stopping substrate reaction, OD values at 450 nm were read using a microplate reader, and the binding ability of the antibody to the target antigen CDH6 was analyzed.

| Binder | OD450 [OD450] |
| --- | --- |
| B1 | 1.18 |
| B2 | 3.69 |
| B3 | 1.69 |
| B4 | 1.8 |

target: T1, recombinant protein CDH6; experiment: ELISA, CDH6 coated; antibody 0.10 ng/mL
Experimental: as §1

| Binder | OD450 [OD450] |
| --- | --- |
| B1 | 0.069 |
| B2 | 0.106 |
| B3 | 0.048 |
| B4 | 0.073 |

target: T1, recombinant protein CDH6; experiment: ELISA, CDH6 coated; antibody 100 ng/mL
Experimental: as §1

| Binder | OD450 [OD450] |
| --- | --- |
| B1 | 1.41 |
| B2 | 3.9 |
| B3 | 2.38 |
| B4 | 2.62 |

target: T1, recombinant protein CDH6; experiment: ELISA, CDH6 coated; antibody 50 ng/mL
Experimental: as §1

| Binder | OD450 [OD450] |
| --- | --- |
| B1 | 1.33 |
| B2 | 3.89 |
| B3 | 2.11 |
| B4 | 2.32 |

target: T1, recombinant protein CDH6; experiment: ELISA, CDH6 coated; antibody 12.5 ng/mL
Experimental: as §1

| Binder | OD450 [OD450] |
| --- | --- |
| B1 | 1.27 |
| B2 | 3.62 |
| B3 | 1.08 |
| B4 | 1.7 |

target: T1, recombinant protein CDH6; experiment: ELISA, CDH6 coated; antibody 3.13 ng/mL
Experimental: as §1

| Binder | OD450 [OD450] |
| --- | --- |
| B1 | 0.831 |
| B2 | 1.87 |
| B3 | 0.3 |
| B4 | 0.596 |

target: T2, CDH6 on the cell surface of OVCAR-3 …; experiment: flow cytometry (FACS) on OVCAR-3 cells, antibody titration, labelled secondary antibody, MFI
Experimental: The binding EC50 of the humanized antibodies on tumor cell were tested as follow. Human ovarian cancer cell line OVCAR-3(purchased from National Collection of Authenticated Cell Cultures) cell culture was maintained in vitro as independent monolayer cultures at 37° C. in an atmosphere of 5% CO₂. The cells were harvested using trypsin-EDTA partial digestion followed by centrifugation at 1000 rpm for 5 minutes. The cell was resuspended in cold PBS and serial dilution of Ch069707 and CL069707-H1L1, CL069707-H1L2, CL069707-H2L1 and CL069707-H2L2 antibodies were added. Ch069707 antibody was a chimeric antibody. The variable regions were the same as those of CL069707, and the constant region was the same as human IgG1 constant regions (SEQ ID NO: 70 and SEQ ID NO: 71). The cell solutions were mixed, incubated at 4° C. and washed with cold PBS prior to addition of secondary antibody conjugates (for detection purposes). After incubation at 4° C., the cells were washed with PBS, and then subjected to flow cytometry (FACS) analysis.

| Binder | EC50 (read off the curve) [nM] |
| --- | --- |
| B5 | ~1 |
| B6 | ~1 |
| B7 | ~1 |

target: T1, recombinant protein CDH6; experiment: ELISA, CDH6 coated at 1 ug/mL
Experimental: as §1

| Binder | sensitivity [ng/mL] |
| --- | --- |
| B1 | ≤ 1.56 |
| B2 | ≤ 1 |
| B3 | ≤ 6.3 |
| B4 | ≤ 3.12 |

target: T1, recombinant protein CDH6; experiment: ELISA, CDH6 coated; antibody 0.39 ng/mL
Experimental: as §1

| Binder | OD450 [OD450] |
| --- | --- |
| B1 | 0.165 |
| B2 | 0.255 |
| B3 | 0.063 |
| B4 | 0.139 |

target: T1, recombinant protein CDH6; experiment: ELISA, CDH6 coated; antibody 6.25 ng/mL
Experimental: as §1

| Binder | OD450 [OD450] |
| --- | --- |
| B1 | 1.01 |
| B2 | 2.82 |
| B3 | 0.577 |
| B4 | 0.975 |

target: T1, recombinant protein CDH6; experiment: ELISA, CDH6 coated; antibody 0.78 ng/mL
Experimental: as §1

| Binder | OD450 [OD450] |
| --- | --- |
| B1 | 0.305 |
| B2 | 0.647 |
| B3 | 0.094 |
| B4 | 0.211 |

target: T1, recombinant protein CDH6; experiment: ELISA, CDH6 coated; antibody 0.20 ng/mL
Experimental: as §1

| Binder | OD450 [OD450] |
| --- | --- |
| B1 | 0.101 |
| B2 | 0.181 |
| B3 | 0.05 |
| B4 | 0.086 |

target: T2, CDH6 on the cell surface of OVCAR-3 …; experiment: flow cytometry (FACS) on OVCAR-3 cells, antibody titration, labelled secondary antibody, MFI; remark: another data set of the same source

| Binder | EC50 (read off the curve) [nM] |
| --- | --- |
| B8 | ~4 |
| B9 | ~3 |
| B10 | ~4 |

target: T1, recombinant protein CDH6; experiment: ELISA, CDH6 coated; antibody 1.56 ng/mL
Experimental: as §1

| Binder | OD450 [OD450] |
| --- | --- |
| B1 | 0.577 |
| B2 | 1.11 |
| B3 | 0.17 |
| B4 | 0.374 |
